Measurements reported in article PMC9665845.

Molecular target: human Kap-β2/Transportin-1 (TNPO1), GST tag removed (human) (UniProt Q92973)
Chain of UniProt Q92973 (Q92973 whole entry): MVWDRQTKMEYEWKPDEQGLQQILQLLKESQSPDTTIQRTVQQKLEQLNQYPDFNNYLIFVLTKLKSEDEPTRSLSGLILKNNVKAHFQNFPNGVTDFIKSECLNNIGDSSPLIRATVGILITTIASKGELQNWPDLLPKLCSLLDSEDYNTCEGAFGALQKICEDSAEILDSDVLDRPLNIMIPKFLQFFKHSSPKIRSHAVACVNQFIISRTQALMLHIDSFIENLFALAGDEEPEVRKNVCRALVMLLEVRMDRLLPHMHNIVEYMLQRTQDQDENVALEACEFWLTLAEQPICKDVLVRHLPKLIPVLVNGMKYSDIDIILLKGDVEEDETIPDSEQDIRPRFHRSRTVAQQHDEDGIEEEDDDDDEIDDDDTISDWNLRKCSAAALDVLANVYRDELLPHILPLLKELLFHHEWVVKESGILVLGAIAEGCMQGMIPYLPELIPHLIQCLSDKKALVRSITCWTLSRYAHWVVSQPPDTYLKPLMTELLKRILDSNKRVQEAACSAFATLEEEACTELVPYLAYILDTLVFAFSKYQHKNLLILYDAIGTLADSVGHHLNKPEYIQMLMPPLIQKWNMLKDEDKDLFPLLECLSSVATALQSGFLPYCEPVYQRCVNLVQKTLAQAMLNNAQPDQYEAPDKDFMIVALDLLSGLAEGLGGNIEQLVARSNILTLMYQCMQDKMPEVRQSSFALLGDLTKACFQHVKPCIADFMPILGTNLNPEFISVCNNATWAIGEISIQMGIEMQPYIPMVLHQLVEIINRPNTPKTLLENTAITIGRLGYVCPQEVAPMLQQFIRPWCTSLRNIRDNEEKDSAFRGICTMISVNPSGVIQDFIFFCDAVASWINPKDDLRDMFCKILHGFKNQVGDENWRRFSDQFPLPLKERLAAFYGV

| percent reduction of TCF/LEF luciferase activity in 3T3 mouse fibroblast reporter cells activated by human β-catenin-GFP | percent reduction of TCF/LEF luciferase activity in 3T3 mouse fibroblast reporter cells activated by human β-catenin-GFP; blocks TNPO1 with β-catenin | Binder |
| --- | --- | --- |
| 24% | – | GGSYNDFGNYNNQSSNAAAAKGGNFGGAFEAAANPTKR [M9M-A peptide] |
| – | 45% | GGSYNDFGNYNNQSSNFGPMKGGNFGGRFEPYANPTKR [M9M peptide] |
